Assay results: paper PMC10786891, “Massively parallel profiling of RNA-targeting CRISPR-Cas13d”

T1: EsCas13d, nuclease-dead (Eubacterium siraeum, UniProt B0MS50, R295A;H300A;R849A;H854A)
T1 sequence: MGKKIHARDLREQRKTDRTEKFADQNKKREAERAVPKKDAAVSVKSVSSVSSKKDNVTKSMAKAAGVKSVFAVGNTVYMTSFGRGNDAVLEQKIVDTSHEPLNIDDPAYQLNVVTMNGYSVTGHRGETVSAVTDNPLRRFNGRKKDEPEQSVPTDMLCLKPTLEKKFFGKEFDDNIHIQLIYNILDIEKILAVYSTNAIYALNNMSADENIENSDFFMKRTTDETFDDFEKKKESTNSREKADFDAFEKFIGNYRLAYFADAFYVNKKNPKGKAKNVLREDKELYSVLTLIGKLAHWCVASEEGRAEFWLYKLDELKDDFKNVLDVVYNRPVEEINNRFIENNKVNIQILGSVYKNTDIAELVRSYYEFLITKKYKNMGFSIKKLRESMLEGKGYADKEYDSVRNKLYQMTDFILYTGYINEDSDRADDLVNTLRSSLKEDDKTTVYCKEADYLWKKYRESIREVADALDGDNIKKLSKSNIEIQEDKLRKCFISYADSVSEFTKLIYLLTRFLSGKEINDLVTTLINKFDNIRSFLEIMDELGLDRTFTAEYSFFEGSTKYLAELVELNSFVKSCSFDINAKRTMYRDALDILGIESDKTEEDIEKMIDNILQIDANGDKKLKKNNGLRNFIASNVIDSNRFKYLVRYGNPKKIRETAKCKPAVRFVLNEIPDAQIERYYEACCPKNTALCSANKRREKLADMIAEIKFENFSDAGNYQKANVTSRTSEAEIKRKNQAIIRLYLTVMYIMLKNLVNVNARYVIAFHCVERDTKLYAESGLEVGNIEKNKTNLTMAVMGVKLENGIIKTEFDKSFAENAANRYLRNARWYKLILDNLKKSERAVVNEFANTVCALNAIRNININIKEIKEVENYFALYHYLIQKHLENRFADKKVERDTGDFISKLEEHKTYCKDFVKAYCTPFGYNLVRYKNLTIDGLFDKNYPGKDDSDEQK

B1: target 2 MT 5'PFS CGA 3'PFS AGC (mixed)
RNA 1: CACCCGUGCAAAAUUGCAGGGGUCUAAAACCUUCUCCAAAUUGUUUCAUCCU
RNA 2: GGGAAUGGAUCCACAUCUACGAAUUCCGAAGGAUGAAACAAUUUGGAGAAGAGCAGAUCGGAAGAGCACACGU
B2: target 2 MT 5'PFS AGA 3'PFS CGC (mixed)
RNA 1: CACCCGUGCAAAAUUGCAGGGGUCUAAAACCUUCUCCAAAUUGUUUCAUCCU
RNA 2: GGGAAUGGAUCCACAUCUACGAAUUCAGAAGGAUGAAACAAUUUGGAGAAGCGCAGAUCGGAAGAGCACACGU
B3: target 2 MT 5'PFS CAG 3'PFS AAC (mixed)
RNA 1: CACCCGUGCAAAAUUGCAGGGGUCUAAAACCUUCUCCAAAUUGUUUCAUCCU
RNA 2: GGGAAUGGAUCCACAUCUACGAAUUCCAGAGGAUGAAACAAUUUGGAGAAGAACAGAUCGGAAGAGCACACGU
B4: target 2 MT 5'PFS GCC 3'PFS CCG (mixed)
RNA 1: CACCCGUGCAAAAUUGCAGGGGUCUAAAACCUUCUCCAAAUUGUUUCAUCCU
RNA 2: GGGAAUGGAUCCACAUCUACGAAUUCGCCAGGAUGAAACAAUUUGGAGAAGCCGAGAUCGGAAGAGCACACGU
B5: target 2 MT 5'PFS GCA 3'PFS AAA (mixed)
RNA 1: CACCCGUGCAAAAUUGCAGGGGUCUAAAACCUUCUCCAAAUUGUUUCAUCCU
RNA 2: GGGAAUGGAUCCACAUCUACGAAUUCGCAAGGAUGAAACAAUUUGGAGAAGAAAAGAUCGGAAGAGCACACGU
B6: target 2 MT 5'PFS ACC 3'PFS UUG (mixed)
RNA 1: CACCCGUGCAAAAUUGCAGGGGUCUAAAACCUUCUCCAAAUUGUUUCAUCCU
RNA 2: GGGAAUGGAUCCACAUCUACGAAUUCACCAGGAUGAAACAAUUUGGAGAAGUUGAGAUCGGAAGAGCACACGU
B7: target 2 MT 5'PFS GCA 3'PFS AAU (mixed)
RNA 1: CACCCGUGCAAAAUUGCAGGGGUCUAAAACCUUCUCCAAAUUGUUUCAUCCU
RNA 2: GGGAAUGGAUCCACAUCUACGAAUUCGCAAGGAUGAAACAAUUUGGAGAAGAAUAGAUCGGAAGAGCACACGU
B8: target 2 MT 5'PFS CUC 3'PFS CUG (mixed)
RNA 1: CACCCGUGCAAAAUUGCAGGGGUCUAAAACCUUCUCCAAAUUGUUUCAUCCU
RNA 2: GGGAAUGGAUCCACAUCUACGAAUUCCUCAGGAUGAAACAAUUUGGAGAAGCUGAGAUCGGAAGAGCACACGU
B9: target 2 MT 5'PFS GUG 3'PFS UGU (mixed)
RNA 1: CACCCGUGCAAAAUUGCAGGGGUCUAAAACCUUCUCCAAAUUGUUUCAUCCU
RNA 2: GGGAAUGGAUCCACAUCUACGAAUUCGUGAGGAUGAAACAAUUUGGAGAAGUGUAGAUCGGAAGAGCACACGU
B10: target 2 MT 5'PFS GCA 3'PFS AAG (mixed)
RNA 1: CACCCGUGCAAAAUUGCAGGGGUCUAAAACCUUCUCCAAAUUGUUUCAUCCU
RNA 2: GGGAAUGGAUCCACAUCUACGAAUUCGCAAGGAUGAAACAAUUUGGAGAAGAAGAGAUCGGAAGAGCACACGU
B11: target 2 MT 5'PFS AAC 3'PFS AGA (mixed)
RNA 1: CACCCGUGCAAAAUUGCAGGGGUCUAAAACCUUCUCCAAAUUGUUUCAUCCU
RNA 2: GGGAAUGGAUCCACAUCUACGAAUUCAACAGGAUGAAACAAUUUGGAGAAGAGAAGAUCGGAAGAGCACACGU
B12: target 2 MT 5'PFS UAA 3'PFS UUU (mixed)
RNA 1: CACCCGUGCAAAAUUGCAGGGGUCUAAAACCUUCUCCAAAUUGUUUCAUCCU
RNA 2: GGGAAUGGAUCCACAUCUACGAAUUCUAAAGGAUGAAACAAUUUGGAGAAGUUUAGAUCGGAAGAGCACACGU
B13: target 2 MT 5'PFS CUG 3'PFS CAU (mixed)
RNA 1: CACCCGUGCAAAAUUGCAGGGGUCUAAAACCUUCUCCAAAUUGUUUCAUCCU
RNA 2: GGGAAUGGAUCCACAUCUACGAAUUCCUGAGGAUGAAACAAUUUGGAGAAGCAUAGAUCGGAAGAGCACACGU
B14: target 2 MT 5'PFS UCG 3'PFS ACU (mixed)
RNA 1: CACCCGUGCAAAAUUGCAGGGGUCUAAAACCUUCUCCAAAUUGUUUCAUCCU
RNA 2: GGGAAUGGAUCCACAUCUACGAAUUCUCGAGGAUGAAACAAUUUGGAGAAGACUAGAUCGGAAGAGCACACGU
B15: target 2 MT 5'PFS GCC 3'PFS CCA (mixed)
RNA 1: CACCCGUGCAAAAUUGCAGGGGUCUAAAACCUUCUCCAAAUUGUUUCAUCCU
RNA 2: GGGAAUGGAUCCACAUCUACGAAUUCGCCAGGAUGAAACAAUUUGGAGAAGCCAAGAUCGGAAGAGCACACGU
B16: target 2 MT 5'PFS CUC 3'PFS CUU (mixed)
RNA 1: CACCCGUGCAAAAUUGCAGGGGUCUAAAACCUUCUCCAAAUUGUUUCAUCCU
RNA 2: GGGAAUGGAUCCACAUCUACGAAUUCCUCAGGAUGAAACAAUUUGGAGAAGCUUAGAUCGGAAGAGCACACGU
B17: target 2 MT 5'PFS ACC 3'PFS UUA (mixed)
RNA 1: CACCCGUGCAAAAUUGCAGGGGUCUAAAACCUUCUCCAAAUUGUUUCAUCCU
RNA 2: GGGAAUGGAUCCACAUCUACGAAUUCACCAGGAUGAAACAAUUUGGAGAAGUUAAGAUCGGAAGAGCACACGU
B18: target 2 MT 5'PFS UAA 3'PFS UUC (mixed)
RNA 1: CACCCGUGCAAAAUUGCAGGGGUCUAAAACCUUCUCCAAAUUGUUUCAUCCU
RNA 2: GGGAAUGGAUCCACAUCUACGAAUUCUAAAGGAUGAAACAAUUUGGAGAAGUUCAGAUCGGAAGAGCACACGU
B19: target 2 MT 5'PFS CUG 3'PFS CAG (mixed)
RNA 1: CACCCGUGCAAAAUUGCAGGGGUCUAAAACCUUCUCCAAAUUGUUUCAUCCU
RNA 2: GGGAAUGGAUCCACAUCUACGAAUUCCUGAGGAUGAAACAAUUUGGAGAAGCAGAGAUCGGAAGAGCACACGU
B20: target 2 MT 5'PFS CUC 3'PFS CUC (mixed)
RNA 1: CACCCGUGCAAAAUUGCAGGGGUCUAAAACCUUCUCCAAAUUGUUUCAUCCU
RNA 2: GGGAAUGGAUCCACAUCUACGAAUUCCUCAGGAUGAAACAAUUUGGAGAAGCUCAGAUCGGAAGAGCACACGU
B21: target 2 MT 5'PFS CUC 3'PFS CUA (mixed)
RNA 1: CACCCGUGCAAAAUUGCAGGGGUCUAAAACCUUCUCCAAAUUGUUUCAUCCU
RNA 2: GGGAAUGGAUCCACAUCUACGAAUUCCUCAGGAUGAAACAAUUUGGAGAAGCUAAGAUCGGAAGAGCACACGU
B22: target 2 MT 5'PFS ACC 3'PFS UUC (mixed)
RNA 1: CACCCGUGCAAAAUUGCAGGGGUCUAAAACCUUCUCCAAAUUGUUUCAUCCU
RNA 2: GGGAAUGGAUCCACAUCUACGAAUUCACCAGGAUGAAACAAUUUGGAGAAGUUCAGAUCGGAAGAGCACACGU
B23: target 2 MT 5'PFS CUG 3'PFS CAC (mixed)
RNA 1: CACCCGUGCAAAAUUGCAGGGGUCUAAAACCUUCUCCAAAUUGUUUCAUCCU
RNA 2: GGGAAUGGAUCCACAUCUACGAAUUCCUGAGGAUGAAACAAUUUGGAGAAGCACAGAUCGGAAGAGCACACGU
B24: target 2 MT 5'PFS GCA 3'PFS AAC (mixed)
RNA 1: CACCCGUGCAAAAUUGCAGGGGUCUAAAACCUUCUCCAAAUUGUUUCAUCCU
RNA 2: GGGAAUGGAUCCACAUCUACGAAUUCGCAAGGAUGAAACAAUUUGGAGAAGAACAGAUCGGAAGAGCACACGU
B25: target 2 MT 5'PFS UCG 3'PFS ACG (mixed)
RNA 1: CACCCGUGCAAAAUUGCAGGGGUCUAAAACCUUCUCCAAAUUGUUUCAUCCU
RNA 2: GGGAAUGGAUCCACAUCUACGAAUUCUCGAGGAUGAAACAAUUUGGAGAAGACGAGAUCGGAAGAGCACACGU
B26: target 2 MT 5'PFS GCG 3'PFS AGC (mixed)
RNA 1: CACCCGUGCAAAAUUGCAGGGGUCUAAAACCUUCUCCAAAUUGUUUCAUCCU
RNA 2: GGGAAUGGAUCCACAUCUACGAAUUCGCGAGGAUGAAACAAUUUGGAGAAGAGCAGAUCGGAAGAGCACACGU
B27: target 1 insC 3' of 11,insU 3' of 7 (mixed)
RNA 1: CACCCGUGCAAAAAUGCAGGGGUCUAAAACUGAGCGGAUAACCUCUCUAUGG
RNA 2: GGGAAUGGAUCCACAUCUACGAAUUCGUACCAUAGAGAGGUCUAUCUCGCUCACCGAGAUCGGAAGAGCACACGU
B28: target 1 insG 3' of 22,insG 3' of 21 (mixed)
RNA 1: CACCCGUGCAAAAAUGCAGGGGUCUAAAACUGAGCGGAUAACCUCUCUAUGG
RNA 2: GGGAAUGGAUCCACAUCUACGAAUUCGUACGCGAUAGAGAGGUUAUCCGCUCACCGAGAUCGGAAGAGCACACGU

The binders below were run against T1, EsCas13d, nuclease-dead (assay: crRNA (strand 1, pre-loaded); Mg2+; 40 mM Tris-HCl pH 7.5, 150 mM NaCl, 6 mM MgCl2, 1 mM DTT, 0.1% Tween-20, 0.2 mg/ml BSA; 25 C; 10 min per concentration, then washed). Conditions: tags: His6-TwinStrep-SUMO cleaved; N-terminal SNAP kept (SNAP-Surface 488); label: 3' end held by stalled T7 RNA polymerase.

B1 and B2 are within error of each other in Kd: 7.8 ± 1.1 nM for the first, 6.5 ± 1.2 nM for the second.

Compared with B3, B4 is 3-fold higher in Kd: 6.1 ± 1.4 nM for the first, 18 ± 2 nM for the second.

Going from B5 to B6, the Kd rises from 6.5 ± 2 nM to 11.2 ± 2.2 nM (1.7-fold). The first binds more tightly here.

First: B7
Second: B8
The Kd of the first is 2.3-fold higher: 10 ± 1.9 nM for the first, 4.4 ± 1.5 nM for the second. The second binds more tightly here.

Going from B9 to B10, the Kd falls from 27 ± 2.4 nM to 7.8 ± 1.2 nM (3.5-fold).

Going from B11 to B12, the Kd rises from 3.3 ± 0.8 nM to 13.4 ± 1.9 nM (4.1-fold). The first binds more tightly here.

Going from B13 to B14, the Kd rises from 2.29 ± 0.24 nM to 20 ± 4 nM (8.7-fold).

Going from B15 to B16, the Kd falls from 20 ± 4 nM to 2.47 ± 0.18 nM (8.1-fold).

B17 and B18 are within error of each other in Kd: 9.6 ± 2.8 nM for the first, 14 ± 2.1 nM for the second.

B19 and B20 are within error of each other in Kd: 2.33 ± 0.21 nM for the first, 3.1 ± 0.6 nM for the second.

First: B21
Second: B22
The Kd of the first is 4.1-fold lower: 2.02 ± 0.29 nM for the first, 8.2 ± 1.4 nM for the second. The first binds more tightly here.

Going from B23 to B24, the Kd rises from 3.7 ± 0.4 nM to 11.9 ± 3.3 nM (3.2-fold).

Compared with B25, B26 is 4.6-fold lower in Kd: 45 ± 9 nM for the first, 9.7 ± 1.6 nM for the second.

B27 and B28 are within error of each other in Kd: 39 ± 5 nM for the first, 68 ± 24 nM for the second.
